Reference: patent US20050013808A1, “Nitroreductase enzymes” (priority 2001, published 2005)

How the values were obtained:
[1] = Steady state kinetics of purified NTR, variable substrate CB1954; type: biochemical
Protocol: (§1) Wild type NTR and selected mutants were purified as described by Lovering et al., 2001. Steady state kinetic studies were carried out by monitoring the disappearance of nitrofurazone ( ? =12,960, Zenno, et al., 1994) and nitrofurantoin ( ? =12,020, McOsker, et al., 1992) at 420 nm or the disappearance of reduced benzoquinone ( ? =18,5000), 2-nitrofuran ( ? =10,250, McOsker, et al., 1992), 2-nitrobenzamide ( ? =9,750, McOsker, et al., 1992) and 4 nitrobenzamide ( ? =9,720, McOsker, et al., 1992) at 300 nm. The formation of the 4 hydroxylamine product of CB1954 reduction was monitored at 420 nm ( ? =7900, Richard Knox, personal communication).
(§2) All reactions were performed in quartz cuvettes with either a 0.1-, 0.5-, or 1-cm pathlength. In all cases the reaction was initiated by the addition of a small amount of cold enzyme solution to the reaction mix. Assays were performed in 10 mM Tris HCL pH 7.0. The temperature of each reaction was maintained at 25° C. by means of a circulating water bath. All substrates examined were dissolved in DMSO, with the final concentration of organic solvent not exceeding 4% (v/v), concentrations>5% (v/v) give definable enzyme inhibition. In all assay the final DMSO concentration was at 4%. All steady state data were collected in an aerobic environment. Kinetic data were collected at concentration ranges extending from 0.1 of Km to the maximum possible concentration permitted by substrate solubility or optical absorbance. In all cases maximum substrate concentrations exceeded 5×Km. All data was analysed using the commercial package Sigma Plot™ and fit with non-linear regression to a rectangular hyperbola of the form: y=ax/b+x

[2] = Steady state kinetics of purified NTR, variable substrate nitrofurazone; type: biochemical; settings: fixed substrate NADH
Protocol: as §1, §2

[3] = nitrofurazone and nitrofurantoin as substrates; cited from earlier work
[4] = test system: UT5600 cells (NTR−) lysogens; assay: Replica-plate screening of mutant NTR-expressing lysogens on increasing CB1954 (growth score); type: cell-based, E. coli
Protocol: The ligation mix was packaged (Stratagene) into lambda bacteriophage particles that were used to infect UT5600 cells (NTR ^−). As a control wild type NTR was also cloned into this vector (JG16C2). Kanamycin resistant lysogens were selected on agar plates ([…] kanamycin) then individually grown overnight in a well of a 96-well plate in LB+Kanamycin. The clones were replica plated on to a series of plates containing Tris-buffered (50 mM, pH 7.5) LB agar with kanamycin, IPTG (0.1 mM) and CB1954 at a concentration of 0, 25, 35, 50, 100, 200, 300 or 400 μM (see FIG. 3). […]

[5] = test system: UT5600 cells (NTR−) lysogens; assay: Survival curve (colony count) IC50 of CB1954 in NTR-expressing lysogens; type: cell-based, E. coli; settings: concentration of CB1954 giving 50% reduction in colony number after 36h growth; lysogen expressing the named NTR
Protocol: To quantify the improvement in NTR activity in the clones in a less subjective way, a few clones were selected for further study by determining their survival curves. The lysogens were grown overnight in LB +kanamycin and diluted to approximately 1 cell per μl based on the OD. In duplicate, 100 μl diluted cells were plated into Tris-buffered LB plates containing kanamycin, IPTG and 0-400 μM CB1954. After 36h growth the number of colonies on each plate were counted and expressed as a percentage of the number present on the plates with no CB1954. Survival curves showing % survival versus concentration of CB 1954 were plotted (see examples in FIG. 7) and the IC50 determined as the concentration of CB 1954 which kills gives a 50% reduction in colony number (Table 3 and FIG. 8). A few clones containing mutations resulting in an enhanced sensitivity to CB 1954 were selected for further study.

[6] = Steady state kinetics of purified NTR, variable substrate NADH; type: biochemical; settings: fixed substrate nitrofurazone
Protocol: as §1, §2

[7] = variable substrate CB1954, fixed substrate NADH

B1: F124H: NTR mutant, phenylalanine 124 to histidine (protein)
chain: MDIISVALKRHSTKAFDASKKLTPEQAEQIKTLLQYSPSSTNSQPWHFIVASTEEGKARVAKSAAGNYVFNERKMLDASHVVVFCAKTAMDDVWLKLVVDQEDADGRFATPEAKAANDKGRKFHADMHRKDLHDDAEWMAKQVYLNVGNFLLGVAALGLDAVPIEGFDAAILDAEFGLKEKGYTSLVVVPVGHHSVEDFNATLPKSRLPQNITLTEV
In the case of B1, the “kinetic parameters compared with wild type” value ([1]; second substrate CB1954, nucleotide NADH) is reported as “significant improvement in kcat/Km for both nucleotide and second substrate”, the Km [1, 7] is reported as 526 ± 10 µM and the kcat [1, 7] is reported as 5.93 ± 0.583 s⁻¹. The Km [2] was 104 ± 10 µM, the kcat [2] was 10.7 ± 0.267 s⁻¹ and the “nitroreductase activity compared with wild-type” value [3] was “approximately double the wild-type activity”. The “nitroreductase activity with CB1954 compared with wild-type” value ([4]; CB1954) was “substantially greater activity with CB 1954 than the wild-type”, the Score ([4]; growth of lysogens on agar with kanamycin, IPTG and 0-400 μM CB1954, wild type = 4, higher = more sensitive) was 7-9 and the IC50 [5] was 41 µM. It also gave a kcat [6] of 10.3 ± 0.217 s⁻¹ and a Km ([6]; 10 mM Tris HCl pH 7.0, 25° C., 4% DMSO) of 3 ± 0.4 µM.
